Measurements as given in patent US20160264649A1.

Experiments:
Assay in all cases: cell-based or functional assay
[1] = target: HIV-1 MGRM-G-001 Env (HIV-1)
[2] = target: HIV-1 MGRM-AE-004 Env (HIV-1)
[3] = target: HIV-1 MGRM-D-022 Env (HIV-1)
[4] = target: HIV-1 LAVIC_18 Env on pseudovirus (HIV-1)
[5] = target: HIV-1 MGRM-C-006 Env on pseudovirus (HIV-1)
[6] = target: HIV-1 MGRM-Chronic-B-002 Env on pseudovirus (HIV-1)
[7] = target: HIV-1 MGRM-Chronic-B-017 Env on pseudovirus (HIV-1)
[8] = target: HIV-1 SC422661.8 (Acute) Env on pseudovirus (HIV-1)
[9] = target: HIV-1 MGRM-D-020 Env (HIV-1)
[10] = target: HIV-1 CAAN.A2 (Acute) Env on pseudovirus (HIV-1)
[11] = target: HIV-1 MGRM-D-021 Env (HIV-1)
[12] = target: HIV-1 98IN022 Env on pseudovirus (HIV-1)
[13] = target: HIV-1 MGRM-AG-001 Env (HIV-1)
[14] = target: HIV-1 MGRM-Chronic-B-018 Env on pseudovirus (HIV-1)
[15] = target: HIV-1 MGRM-AG-008 Env (HIV-1)
[16] = target: HIV-1 TRO.11 (Acute) Env on pseudovirus (HIV-1)
[17] = target: HIV-1 MGRM-D-013 Env (HIV-1)
[18] = target: HIV-1 IAVI-C3 Env (HIV-1)
[19] = target: HIV-1 MGRM-F1-014 Env (HIV-1)
[20] = target: HIV-1 TRJ0.58 (Acute) Env on pseudovirus (HIV-1)
[21] = target: HIV-1 NL43 Env on pseudovirus (HIV-1)
[22] = target: HIV-1 MGRM-D-028 Env (HIV-1)
[23] = target: HIV-1 MGRM-AG-003 Env (HIV-1)
[24] = target: HIV-1 MGRM-Chronic-B-020 Env on pseudovirus (HIV-1)
[25] = target: HIV-1 MGRM-F1-023 Env (HIV-1)
[26] = target: HIV-1 MGRM-C-017 Env on pseudovirus (HIV-1)
[27] = target: HIV-1 MGRM-D-014 Env (HIV-1)
[28] = target: HIV-1 MGRM-AE-003 Env (HIV-1)
[29] = target: HIV-1 92UG046 Env (HIV-1)
[30] = target: HIV-1 92BR020 Env on pseudovirus (HIV-1)
[31] = target: HIV-1 MGRM-D-018 Env (HIV-1)
[32] = target: HIV-1 6535.3 (Acute) Env on pseudovirus (HIV-1)
[33] = target: HIV-1 APV_13 Env on pseudovirus (HIV-1)
[34] = target: HIV-1 MGRM-D-029 Env (HIV-1)
[35] = target: HIV-1 LAVI_C22 Env on pseudovirus (HIV-1)
[36] = target: HIV-1 94UG114 Env (HIV-1)
[37] = target: HIV-1 MGRM-F1-012 Env (HIV-1)
[38] = target: HIV-1 MGRM-C-007 Env on pseudovirus (HIV-1)
[39] = target: HIV-1 PVO.4 (Acute) Env on pseudovirus (HIV-1)
[40] = target: HIV-1 QH0692.42 (Acute) Env on pseudovirus (HIV-1)
[41] = target: HIV-1 LAVI_C3 Env on pseudovirus (HIV-1)
[42] = target: aMLV envelope (negative control pseudovirus)
[43] = target: HIV-1 MGRM-Chronic-B-010 Env on pseudovirus (HIV-1)
[44] = target: HIV-1 MGRM-C-024 Env on pseudovirus (HIV-1)
[45] = target: HIV-1 MGRM-D-001 Env (HIV-1)
[46] = target: HIV-1 MGRM-D-019 Env (HIV-1)
[47] = target: HIV-1 MGRM-C-015 Env on pseudovirus (HIV-1)
[48] = target: HIV-1 MGRM-D-003 Env (HIV-1)
[49] = target: HIV-1 MGRM-AE-005 Env (HIV-1)
HIV-1 JRCSF Env (HIV-1) = HIV-1 JRCSF Env (HIV-1) (UniProt P20871)
[50] = target: HIV-1 MGRM-G-011 Env (HIV-1)
[51] = target: HIV-1 MGRM-D-026 Env (HIV-1)

1443_C16 (PG16) (TCN-116) (antibody), sequence (VH): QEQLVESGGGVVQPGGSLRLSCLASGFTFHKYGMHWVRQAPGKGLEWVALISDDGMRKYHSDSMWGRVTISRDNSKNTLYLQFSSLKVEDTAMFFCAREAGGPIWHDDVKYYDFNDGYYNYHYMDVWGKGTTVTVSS
1443_C16 (PG16) (TCN-116) (antibody), sequence (VL): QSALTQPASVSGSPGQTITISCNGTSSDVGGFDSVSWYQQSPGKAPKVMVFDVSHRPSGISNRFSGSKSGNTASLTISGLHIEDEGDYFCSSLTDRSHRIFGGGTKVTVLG

4E10 (antibody)
IC50 (µg/ml), pseudovirus neutralization [1]: 2.04 µg/mL | IC50 (µg/ml), pseudovirus neutralization [2]: 1.27 µg/mL | IC50 (µg/ml), pseudovirus neutralization [3]: 16.9 µg/mL | IC50 [4]: > 50 µg/mL | IC50 [5]: 4.94 µg/mL | IC50 [6]: 2.19 µg/mL | IC50 [7]: 2.77 µg/mL | IC50 [8]: 6.35 µg/mL | IC50 (µg/ml), pseudovirus neutralization [9]: > 50 µg/mL | IC50 [10]: 17.9 µg/mL | IC50 (µg/ml), pseudovirus neutralization [11]: 13.3 µg/mL | IC50 [12]: 0.53 µg/mL | IC50 (µg/ml), pseudovirus neutralization [13]: 1.12 µg/mL | IC50 [14]: 23.2 µg/mL | IC50 (µg/ml), pseudovirus neutralization [15]: 1.48 µg/mL | IC50 [16]: 1.39 µg/mL | IC50 (µg/ml), pseudovirus neutralization [17]: 5.38 µg/mL | neutralization IC50 [18]: 5 µg/mL | IC50 (pseudovirus neutralization) [19]: 7.36 µg/mL | IC50 [20]: 11.9 µg/mL | IC50 [21]: 4.67 µg/mL | IC50 (µg/ml), pseudovirus neutralization [22]: 1.28 µg/mL | IC50 (µg/ml), pseudovirus neutralization [23]: 0.64 µg/mL | IC50 [24]: 2.45 µg/mL | IC50 (pseudovirus neutralization) [25]: 0.44 µg/mL | IC50 [26]: 1.47 µg/mL | IC50 (µg/ml), pseudovirus neutralization [27]: 3.24 µg/mL | IC50 (µg/ml), pseudovirus neutralization [28]: 0.34 µg/mL | IC50 (µg/ml), pseudovirus neutralization [29]: 12.2 µg/mL | IC50 [30]: > 50 µg/mL | IC50 (µg/ml), pseudovirus neutralization [31]: 3.9 µg/mL | IC50 [32]: 1.23 µg/mL | IC50 [33]: 7.33 µg/mL | IC50 (µg/ml), pseudovirus neutralization [34]: 5.3 µg/mL | IC50 [35]: 2.02 µg/mL | IC50 (µg/ml), pseudovirus neutralization [36]: 9.72 µg/mL | IC50 (pseudovirus neutralization) [37]: 0.37 µg/mL | IC50 [38]: 5.84 µg/mL | IC50 [39]: 18.3 µg/mL | IC50 [40]: 12.7 µg/mL | IC50 [41]: 2.85 µg/mL | IC50 (pseudovirus neutralization) [42]: > 50 µg/mL | IC50 [43]: 1.69 µg/mL | IC50 [44]: 22.6 µg/mL | IC50 (µg/ml), pseudovirus neutralization [45]: 1.84 µg/mL | IC50 (µg/ml), pseudovirus neutralization [46]: 0.04 µg/mL | IC50 [47]: 2.52 µg/mL | IC50 (µg/ml), pseudovirus neutralization [48]: 2.49 µg/mL | IC50 (µg/ml), pseudovirus neutralization [49]: 0.47 µg/mL | neutralization IC50 (HIV-1 JRCSF Env (HIV-1)): 6 µg/mL | neutralization IC90 (HIV-1 JRCSF Env (HIV-1)): 44.1 µg/mL | IC50 (µg/ml), pseudovirus neutralization [50]: 1.44 µg/mL | IC50 (µg/ml), pseudovirus neutralization [51]: 2.95 µg/mL

1443_C16 (PG16) (TCN-116) (antibody)
IC50 (µg/ml), pseudovirus neutralization [1]: 0.15 µg/mL | IC50 (µg/ml), pseudovirus neutralization [2]: 0.002 µg/mL | IC50 (µg/ml), pseudovirus neutralization [3]: > 50 µg/mL | IC50 [4]: 0.02 µg/mL | IC50 [5]: 2.62 µg/mL | IC50 [6]: 3.06 µg/mL | IC50 [7]: 0.02 µg/mL | IC50 [8]: 1.13 µg/mL | IC50 (µg/ml), pseudovirus neutralization [9]: 16.3 µg/mL | IC50 [10]: 8.83 µg/mL | IC50 (µg/ml), pseudovirus neutralization [11]: > 50 µg/mL | IC50 [12]: 0.003 µg/mL | IC50 (µg/ml), pseudovirus neutralization [13]: 0.03 µg/mL | IC50 [14]: 0.7 µg/mL | IC50 (µg/ml), pseudovirus neutralization [15]: 0.002 µg/mL | IC50 [16]: 0.22 µg/mL | IC50 (µg/ml), pseudovirus neutralization [17]: 0.11 µg/mL | neutralization IC50 [18]: 14.8 µg/mL | neutralization IC90 [18]: > 50 µg/mL | IC50 (pseudovirus neutralization) [19]: 0.01 µg/mL | IC50 [20]: 1.16 µg/mL | IC50 [21]: 0.02 µg/mL | IC50 (µg/ml), pseudovirus neutralization [22]: > 50 µg/mL | IC50 (µg/ml), pseudovirus neutralization [23]: > 50 µg/mL | IC50 [24]: > 50 µg/mL | IC50 (pseudovirus neutralization) [25]: > 50 µg/mL | IC50 [26]: 1.8 µg/mL | IC50 (µg/ml), pseudovirus neutralization [27]: 0.003 µg/mL | IC50 (µg/ml), pseudovirus neutralization [28]: 0.03 µg/mL | IC50 (µg/ml), pseudovirus neutralization [29]: 1.42 µg/mL | IC50 [30]: > 50 µg/mL | IC50 (µg/ml), pseudovirus neutralization [31]: 0.004 µg/mL | IC50 [32]: 36.9 µg/mL | IC50 [33]: > 50 µg/mL | IC50 (µg/ml), pseudovirus neutralization [34]: > 50 µg/mL | IC50 [35]: 0.02 µg/mL | IC50 (µg/ml), pseudovirus neutralization [36]: > 50 µg/mL | IC50 (pseudovirus neutralization) [37]: 0.003 µg/mL | IC50 [38]: 0.05 µg/mL | IC50 [39]: 5.43 µg/mL | IC50 [40]: > 50 µg/mL | IC50 [41]: 9.55 µg/mL | IC50 (pseudovirus neutralization) [42]: > 50 µg/mL | IC50 [43]: 0.01 µg/mL | IC50 [44]: 0.04 µg/mL | IC50 (µg/ml), pseudovirus neutralization [45]: > 50 µg/mL | IC50 (µg/ml), pseudovirus neutralization [46]: 0.01 µg/mL | IC50 [47]: 0.26 µg/mL | IC50 (µg/ml), pseudovirus neutralization [48]: 0.01 µg/mL | IC50 (µg/ml), pseudovirus neutralization [49]: 0.02 µg/mL | neutralization IC50 (HIV-1 JRCSF Env (HIV-1)): < 0.0025 µg/mL | neutralization IC90 (HIV-1 JRCSF Env (HIV-1)): 0.013 µg/mL | IC50 (µg/ml), pseudovirus neutralization [50]: 0.04 µg/mL | IC50 (µg/ml), pseudovirus neutralization [51]: > 50 µg/mL
